The term Kd denotes the free concentration of one partner at which half of the binding sites on the other are occupied at equilibrium, for simple one-to-one binding. One may read the koff as the first-order rate constant of dissociation. The term kon denotes a measure of how fast the partners come together.

Where a chain is given by its changes, count along the chain named.

The target in this test is T1, soluble recombinant extracellular domain of human EGFR (human, UniProt P00533 25-645).
T1 construct: extracellular domain
The experiment in a line: BLI (Octet), scFv-monoFc on AHC sensors, serial dilutions of EGFR extracellular domain.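 Note: EGFR analyte titrated 0 to 200 nM, association 180–300 s then dissociation 300–600 s in PBS with 0.1% BSA and 0.05% Tween20, global 1:1 fit, duplicate means.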

Experimental: Fc-containing protein was captured to anti-human Fc (AHC) sensor tips by loading for 180 seconds at 10 μg/ml. Alternatively, His-tagged proteins were covalently coupled at 10 ug/ml to AR2G tips using manufacturer protocol. After a 60-second baseline step, a 180- to 300-second association phase with serial dilutions (0-200 nM; 1:2.5 dilution factor) or a single 100 nM concentration of purified human EGFR in assay buffer (phosphate-buffered saline containing 0.1% BSA, 0.05% Tween20) was performed, followed by a 300- to 600—second dissociation phase in assay buffer. Regeneration was achieved using 10 mM glycine, pH 1.5. Binding curves were globally fit to a 1:1 model to extract the dissociation constants, KD. Binding kinetics for each protein were assessed in duplicate, with tabulated values reported as average±standard deviation.
The monoFc domain was used to load proteins onto anti-human Fc (AHC) sensors, followed by binding of scFv to serial dilutions of the extracellular domain of human EGFR.

B1: SI-79SF4 (Fc fusion)
chain: EIVLTQSPSTLSVSPGERATFSCRASQSIGTNIHWYQQKPGKPPRLLIKYASESISGIPDRFSGSGSGTEFTLTISSVQSEDFAVYYCQQNNNWPTTFGPGTKLELKGGGGSGGGGSGGGGSGGGGSQVQLQQSGPGLVKPSETLSITCTVSGFSLTNYGVHWIRQAPGKGLEWLGVIWSGGNTDYNTPFTSRFTITKDNSKNQVYFKLRSVRADDTAIYYCARALTYYDYEFAYWGQGTLVTVSSGSGGSPVAGPSVFLFPPKPKDTLMISRTPEVTCVVVDVSHEDPEVKFNWYVDGVEVHNAKTKPREEQYASTYRVVSVLTVLHQDWLNGKEYKCKVSNKALPAPIEKTISKAKGQPREPQVYTLPPSRDELTKNQVSLRCHVKGFYPSDIAVEWESNGQPENNYKTTKPVLDSDGSFFLYSTLTVDKSRWQQGNVFSCSVLHEALHNHYTQKSLSLSPGK
notes: also called H4; H4 scFv-monoFc
Turning to B1, the Kd stood at 3.05 nM, the koff stood at 0.00139 s⁻¹ and the kon was 450000 M⁻¹ s⁻¹.

B2: SI-79SF12 (Fc fusion)
chain: B1 chain with T10I, K39R, D60S, S76T, F83I, E143Q, T197S, V212L, D215E
notes: also called H2; H2 scFv-monoFc
Take B2: the Kd was found to be 3.08 nM, the koff was determined as 0.00151 s⁻¹ and the kon stood at 481000 M⁻¹ s⁻¹.

B3: SI-79SF6 (Fc fusion)
chain: B1 chain with E105T, L106V, K107L
notes: also called H7; H7 scFv-monoFc
Consider B3, for which the Kd was 3.14 nM, the koff came to 0.00143 s⁻¹ and the kon was found to be 447000 M⁻¹ s⁻¹.

B4: SI-79SF10 (Fc fusion)
chain: EIVLTQSPSILSVSPGERVTFSCRASQSIGTNIHWYQQRPGKPPRLLIKYASESISGIPARFSGSGSGTEFTLTISSVQSEDFATYYCQQNNNWPTTFGPGTKLELKGGGGSGGGGSGGGGSGGGGSQVQLVQSGPGLVKPSQTLSLTCTVSGFSLTNYGVHWIRQAPGKGLEWLGVIWSGGNTDYNTPFTSRFTITKDNSKNQVYFKLRSVRSEDTAVYYCARALTYYDYEFAYWGQGTLVTVSSGSGGSPVAGPSVFLFPPKPKDTLMISRTPEVTCVVVDVSHEDPEVKFNWYVDGVEVHNAKTKPREEQYASTYRVVSVLTVLHQDWLNGKEYKCKVSNKALPAPIEKTISKAKGQPREPQVYTLPPSRDELTKNQVSLRCHVKGFYPSDIAVEWESNGQPENNYKTTKPVLDSDGSFFLYSTLTVDKSRWQQGNVFSCSVLHEALHNHYTQKSLSLSPGK
notes: also called H3; H3 scFv-monoFc
B4: the Kd was 3.45 nM, the koff turned out to be 0.00177 s⁻¹ and the kon came out at 504000 M⁻¹ s⁻¹.

B5: SI-79SF11 (Fc fusion)
chain: EIQLTQSPSTLSVSPGERATFSCRASQSIGTNIHWYQQKTGQPPRLLIKYASESISGIPDRFSGSGSGTEFTLSITSVQSEDFAVYYCQQNNNWPTTFGPGTKLEILGGGGSGGGGSGGGGSGGGGSQVQLLQSGPGLVKPSETLSLTCTVSGFSLTNYGVHWIRQAPGKGLEWIGVIWSGGNTDYNTPFTSRFTISKDNSKNQVYFKLRSLTSEDTAIYYCARALTYYDYEFAYWGQGTLVTVSSGSGGSPVAGPSVFLFPPKPKDTLMISRTPEVTCVVVDVSHEDPEVKFNWYVDGVEVHNAKTKPREEQYASTYRVVSVLTVLHQDWLNGKEYKCKVSNKALPAPIEKTISKAKGQPREPQVYTLPPSRDELTKNQVSLRCHVKGFYPSDIAVEWESNGQPENNYKTTKPVLDSDGSFFLYSTLTVDKSRWQQGNVFSCSVLHEALHNHYTQKSLSLSPGK
notes: also called H5; H5 scFv-monoFc
For the molecule B5, the Kd is 2.27 nM, the koff amounted to 0.0011 s⁻¹ and the kon came to 474000 M⁻¹ s⁻¹.

The record behind these values is US20250353917A1 (SYSTIMMUNE, published 2025).
